{"source": "paper PMC5009729", "about": "(Nucleic Acids Research, 2016)", "proteins": {"B1": {"name": "Cse2 (natural protein)", "chain": "MADEIDAMALYRAWQQLDNGSCAQIRRVSEPDELRDIPAFYRLVQPFGWENPRHQQALLRMVFCLSAGKNVIRHQDKKSEQTTGISLGRALANSGRINERRIFQLIRADRTADMVQLRRLLTHAEPVLDWPLMARMLTWWGKRERQQLLEDFVLTTNKNA"}}, "molecular_target": "the molecule itself", "test": "native MS", "data": [{"protein": "B1", "values": [{"measurement": "binding result", "result": "binds"}]}]}
